This is an account of results in article PMC12205875, “CRY1–GAIP1 complex mediates blue light to hinder the repression of PIF5 on AGL5 to promote carotenoid biosynthesis in mango fruit”.

One data set addresses T1, MiGAIP1 (DELLA) (Mangifera indica, UniProt UPI001CFB1029 1-553).
T1 sequence: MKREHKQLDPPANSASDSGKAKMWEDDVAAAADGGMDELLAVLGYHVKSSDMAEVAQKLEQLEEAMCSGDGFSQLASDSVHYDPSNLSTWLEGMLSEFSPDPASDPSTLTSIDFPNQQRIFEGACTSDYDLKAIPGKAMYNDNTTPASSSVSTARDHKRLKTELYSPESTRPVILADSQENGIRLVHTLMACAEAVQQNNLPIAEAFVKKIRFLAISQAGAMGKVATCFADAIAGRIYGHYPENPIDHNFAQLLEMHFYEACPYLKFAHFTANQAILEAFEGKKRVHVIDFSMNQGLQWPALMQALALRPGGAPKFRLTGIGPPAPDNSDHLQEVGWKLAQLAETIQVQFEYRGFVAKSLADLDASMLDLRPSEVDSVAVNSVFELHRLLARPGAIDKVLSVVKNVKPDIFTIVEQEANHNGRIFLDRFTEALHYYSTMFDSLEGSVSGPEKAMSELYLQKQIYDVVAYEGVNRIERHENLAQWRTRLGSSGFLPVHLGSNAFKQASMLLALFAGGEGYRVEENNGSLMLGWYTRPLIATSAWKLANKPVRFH
Briefly: EMSA; LightShift Chemiluminescent EMSA kit (Thermo) per manufacturer; buffer, salt, pH and temperature not stated. The settings on record: protein: recombinant; tags: GST (pGEX4T); label: 3' biotin; blunt. For orientation: Mobility shift assays separate free from complexed probe on a gel.

Another data set deals with T2, MiPIF5 (Mangifera indica, UniProt UPI001CFAADE4 1-539).
T2 sequence: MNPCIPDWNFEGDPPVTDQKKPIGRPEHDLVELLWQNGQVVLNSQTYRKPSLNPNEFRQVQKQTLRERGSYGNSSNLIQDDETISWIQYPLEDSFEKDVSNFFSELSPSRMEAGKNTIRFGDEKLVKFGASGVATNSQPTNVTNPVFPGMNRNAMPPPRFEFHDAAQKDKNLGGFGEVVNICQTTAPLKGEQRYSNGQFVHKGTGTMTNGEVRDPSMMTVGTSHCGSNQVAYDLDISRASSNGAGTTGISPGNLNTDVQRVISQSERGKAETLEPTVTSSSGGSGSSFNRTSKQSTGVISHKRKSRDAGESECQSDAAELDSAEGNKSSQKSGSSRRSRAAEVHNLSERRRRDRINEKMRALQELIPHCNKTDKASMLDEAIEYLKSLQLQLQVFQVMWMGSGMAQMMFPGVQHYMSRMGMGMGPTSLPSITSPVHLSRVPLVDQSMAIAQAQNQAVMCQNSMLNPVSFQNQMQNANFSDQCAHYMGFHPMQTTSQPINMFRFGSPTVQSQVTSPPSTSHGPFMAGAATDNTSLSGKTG
Described as above. As to conditions: protein: recombinant; tags: GST (pGEX4T); chain copies: 2; label: 3' biotin; blunt.

B1: ProMiAGL5-Probe (MiGAIP1) (dsDNA)
DNA 1: TTTCAACAATCAAGAAATGAGAAAGGAAAGAAGAAAAAAGAAAGAAAAAAAAAAAAAGTGTCT
DNA 2: AGACACTTTTTTTTTTTTTCTTTCTTTTTTCTTCTTTCCTTTCTCATTTCTTGATTGTTGAAA
Regarding B1, the binding result with MiGAIP1 (DELLA) is “binds”.

B2: ProMiAGL5-Probe (MiPIF5) (dsDNA)
DNA 1: GAGCATCACATGGGAGTCTATTTTCACTTTGTAATTTGAAAAGGAAAGAGATATATAC
DNA 2: GTATATATCTCTTTCCTTTTCAAATTACAAAGTGAAAATAGACTCCCATGTGATGCTC
In the case of B2, in the data set with MiPIF5, the binding result is recorded as “binds”.
